Consider one molecule from patent US20120328623A1 (Kyowa Kirin, published 2012).

The target of this test is T1, GST fusion protein wherein the extracellular domain of mouse erbB3 is fused to GST (mouse, UniProt Q61526 20-641).
T1 construct: also called merbB3-GST; merbB3; not shown: glutathione S-transferase (GST)
The test can be described thus: binding ELISA, GST fusion captured by anti-GST. How it is done: anti-Glutathione-Transferase-Schistsoma-japonicum (Goat) (manufactured by Rockland Immunochemicals Inc., ca. No. 16979) (hereinbelow, described as “anti-GST”) prepared at 1 μg/mL by using a 50 mM carbonate buffer (pH 9) (hereinbelow, described as a “coating buffer”) was added to Maxisorp plate (NUNC; ca. No. 442404) at 50 μL/well and immobilized by incubation at 37° C. for an hour (or 4° C., ON).
After the buffer was discarded, a blocking reagent (SuperBlock® Blocking Buffer, manufactured by PIERCE) was added to the respective wells at 250 μL to 300 μL/well, followed by incubation at room temperature for 5 to 10 minutes for blocking After the blocking reagent was discarded, the herbB3-GST fusion protein, the merbB3-GST fusion protein, the hD1/mD234 fusion protein, the hD12/mD34 fusion protein, and the hD123/mD4 fusion protein which were diluted at 5 μg/mL with Tris-buffered saline (hereinbelow, described as an “assay diluent”) containing 10% Block Ace® (manufactured by Dainippon Sumitomo Pharma Co., Ltd.) and 0.1% Tween 20 were added respectively to the plates of the respective antigens at 50 μL/well, and immobilized by incubation at room temperature for an hour.
An absorbance at a wavelength of 450 nm (reference wavelength of 570 nm) was measured using a microplate reader (MTP-300; manufactured by CORONA […] Co., Ltd.).

T1 sequence (Q61526 20-641): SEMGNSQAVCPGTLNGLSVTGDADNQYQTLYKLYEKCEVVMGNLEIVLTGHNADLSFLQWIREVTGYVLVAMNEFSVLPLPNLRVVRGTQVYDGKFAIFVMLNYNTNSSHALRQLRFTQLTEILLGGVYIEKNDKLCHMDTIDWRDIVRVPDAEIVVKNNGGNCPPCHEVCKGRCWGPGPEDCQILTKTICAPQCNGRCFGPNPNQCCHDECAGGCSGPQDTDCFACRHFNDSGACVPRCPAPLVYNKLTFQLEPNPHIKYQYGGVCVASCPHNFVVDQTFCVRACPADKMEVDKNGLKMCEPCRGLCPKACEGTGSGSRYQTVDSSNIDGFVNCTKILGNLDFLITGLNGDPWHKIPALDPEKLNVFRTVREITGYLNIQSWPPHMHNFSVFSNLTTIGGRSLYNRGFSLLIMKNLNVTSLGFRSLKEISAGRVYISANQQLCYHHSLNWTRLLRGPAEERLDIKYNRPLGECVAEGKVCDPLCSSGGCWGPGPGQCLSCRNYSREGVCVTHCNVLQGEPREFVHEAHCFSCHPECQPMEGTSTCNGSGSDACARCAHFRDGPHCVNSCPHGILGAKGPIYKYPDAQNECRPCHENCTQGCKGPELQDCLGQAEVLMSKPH

B1: anti-human erbB3 monoclonal antibody 12511 (antibody, V domains shown)
VH: QIQLQQSGPELVNPGASVKISCKPSGYTFTDYYINWVKQRPGQGLEWIGWIHPGGGYTKYNEKFRGKATVTVDTSANTVYMQLSSLTSDDSAVYFCARRDYGDYGFAYWGQGTLVTVSA
VL: DIVLTQSPASLAVSLGQRATISCRVSESVDSYGNSFMHWYQQKPGQPPKLLIYRASNLESGIPDRFSGSVSRTDFTLTINPVEPDDVATYYCQQTNEDPPTFGGGTKLEIK
Regarding B1, the binding result was “binds”.
